According to publication PMC5650921:

Columns and labels:
[1] = biological target: EREG/sEGFR501 complex (human) (UniProt P00533); experiment: small-angle X-ray scattering
[2] = biological target: sEGFR501 1-501 (Homo sapiens) (UniProt P00533); conditions: cited from earlier work

Row | Kd [1] [µM] | Substance | Kd [2] [µM]
1 | > 200 | EREG/sEGFR501 complex (from UniProt P00533 25-525; O14944 56-116) | –
2 | – | sEGFR501 1-501 (from UniProt P00533) | 3
